Measured values as given in article PMC8390535.

Target: sfGFP-POX10 (superfolder green fluorescent protein POX10 fusion protein)
Experiment: SPR

**Q.** For “PXDN-con4 (human recombinant peroxidasin consisting of the four immunoglobulin domains and the peroxidase domain) (domain or fragment)”, which Kd is on record?
**A.** 0.074 µM
